Experimental data from PMC6173745, “Aberrant expression of CITED2 promotes prostate cancer metastasis by activating the nucleolin-AKT pathway” (Nature Communications, 2018).

What was measured:
[1] = target: T1, Human recombinant protein PRMT5 (human, UniProt O14744 1-637); assay: co-IP; in vitro binding assay: recombinant proteins CITED2, PRMT5, NCL and P300 put together in a test tube, immunoprecipitated with the indicated antibodies, immunoblotted; settings: both partners purified
T1 construct: PRMT5, human, recombinant protein bought from Origene; No catalogue number, host, tag or limits are printed; source: bought: Origene

[2] = target: T2, Human recombinant protein NCL (human, UniProt P19338 1-710); assay: as above; settings: both partners purified
T2 construct: Nucleolin, human, recombinant protein bought from Origene; No catalogue number, host, tag or limits are printed; also called nucleolin; source: bought: Origene
T2 sequence (P19338 whole entry): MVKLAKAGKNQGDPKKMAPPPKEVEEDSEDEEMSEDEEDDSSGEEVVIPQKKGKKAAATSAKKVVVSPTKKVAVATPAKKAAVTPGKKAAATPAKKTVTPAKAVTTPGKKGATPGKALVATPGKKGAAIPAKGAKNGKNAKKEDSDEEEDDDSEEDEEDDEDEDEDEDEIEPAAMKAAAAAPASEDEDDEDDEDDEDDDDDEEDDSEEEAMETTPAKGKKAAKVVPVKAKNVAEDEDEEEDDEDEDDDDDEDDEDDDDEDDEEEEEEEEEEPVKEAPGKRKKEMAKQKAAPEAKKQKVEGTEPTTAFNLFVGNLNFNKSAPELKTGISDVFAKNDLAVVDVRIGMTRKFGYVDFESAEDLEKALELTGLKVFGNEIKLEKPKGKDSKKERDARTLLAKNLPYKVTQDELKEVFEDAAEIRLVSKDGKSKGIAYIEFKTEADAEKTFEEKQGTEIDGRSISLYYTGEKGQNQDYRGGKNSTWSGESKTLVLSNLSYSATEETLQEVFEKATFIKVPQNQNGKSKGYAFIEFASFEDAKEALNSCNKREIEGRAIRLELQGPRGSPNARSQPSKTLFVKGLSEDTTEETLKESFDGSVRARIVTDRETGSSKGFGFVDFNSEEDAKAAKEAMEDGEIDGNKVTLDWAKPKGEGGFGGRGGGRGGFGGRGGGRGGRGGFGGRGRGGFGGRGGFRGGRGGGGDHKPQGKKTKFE

T1 sequence (O14744 whole entry): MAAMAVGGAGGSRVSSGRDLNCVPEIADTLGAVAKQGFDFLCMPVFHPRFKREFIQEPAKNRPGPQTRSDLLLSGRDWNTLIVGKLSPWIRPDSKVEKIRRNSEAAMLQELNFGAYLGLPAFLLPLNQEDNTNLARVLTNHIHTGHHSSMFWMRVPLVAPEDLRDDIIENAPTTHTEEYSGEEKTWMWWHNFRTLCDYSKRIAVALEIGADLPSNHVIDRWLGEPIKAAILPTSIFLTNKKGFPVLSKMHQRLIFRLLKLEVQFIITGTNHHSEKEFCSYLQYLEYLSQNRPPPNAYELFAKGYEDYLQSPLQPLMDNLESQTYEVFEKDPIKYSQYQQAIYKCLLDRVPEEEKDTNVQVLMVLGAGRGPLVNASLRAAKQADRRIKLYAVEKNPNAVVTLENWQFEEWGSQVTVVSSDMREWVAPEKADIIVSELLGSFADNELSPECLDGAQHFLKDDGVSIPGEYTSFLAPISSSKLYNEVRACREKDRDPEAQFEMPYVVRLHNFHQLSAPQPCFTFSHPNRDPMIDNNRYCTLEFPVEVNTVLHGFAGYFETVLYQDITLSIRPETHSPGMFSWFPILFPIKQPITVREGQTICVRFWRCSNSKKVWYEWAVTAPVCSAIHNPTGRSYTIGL

B1: Human recombinant protein CITED2 (natural protein, UniProt Q99967 1-270, looked up)
chain: MADHMMAMNHGRFPDGTNGLHHHPAHRMGMGQFPSPHHHQQQQPQHAFNALMGEHIHYGAGNMNATSGIRHAMGPGTVNGGHPPSALAPAARFNNSQFMGPPVASQGGSLPASMQLQKLNNQYFNHHPYPHNHYMPDLHPAAGHQMNGTNQHFRDCNPKHSGGSSTPGGSGGSSTPGGSGSSSGGGAGSSNSGGGSGSGNMPASVAHVPAAMLPPNVIDTDFIDEEVLMSLVIEMGLDRIKELPELWLGQNEFDFMTDFVCKQQPSRVSC
notes: CITED2, human, recombinant protein bought from Origene; No catalogue number, host, tag or limits are printed; source: bought: Origene
binding result [1]: binds
binding result [2]: binds
